{"source": "paper PMC11405398", "target": "spore coat protein GerQ (Bacillus amyloiquefaciens)", "experiment": "cryo-EM structure; native filaments extracted from B. amyloiquefaciens biofilm; helical reconstruction with C9 point group symmetry, rise 34.2 Å, twist −18.4°; 3.3 Å; partially unbundled filaments", "data": [{"substance": "spore coat protein GerQ (natural protein)", "values": [{"measurement": "stoichiometry N (subunits per ring)", "result": 9}]}]}
